Test results published in PMC4856987.

Tests used:
[1] = target: T1, BmSTPR (FMBP-1 STPR domain) (Bombyx mori, UniProt Q5FBS0 99-193); test: ITC
T1 sequence: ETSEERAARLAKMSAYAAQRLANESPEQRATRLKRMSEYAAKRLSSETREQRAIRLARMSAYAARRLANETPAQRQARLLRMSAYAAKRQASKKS

[2] = target: T1, BmSTPR (FMBP-1 STPR domain); test: X-ray crystal structure
[3] = target: T2, BmSTPR with R1 deleted (R2-R4) (Bombyx mori, UniProt Q5FBS0 122-193); test: ITC
T2 sequence: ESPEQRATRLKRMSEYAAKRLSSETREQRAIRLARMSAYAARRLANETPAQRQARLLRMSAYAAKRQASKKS

Binder | Kd [1] | further results
(auac/gtat)4 (dsDNA, t2 of each unit to (deoxy)uridylate) DNA 1: AUACAUACAUACAUAC DNA 2: GTATGTATGTATGTAT | 183 nM | –
18-bp DNA, (atac)4 plus one terminal nt each side (dsDNA) DNA 1: CATACATACATACATACA DNA 2: TGTATGTATGTATGTATG | – | binding result [2]: binds
(gcca)3 (dsDNA) DNA 1: GCCAGCCAGCCA DNA 2: TGGCTGGCTGGC | 44600 ± 14300 nM | –
20-bp (+290) (dsDNA) DNA 1: AGTATTTACATAGATTCATC DNA 2: GATGAATCTATGTAAATACT | – | Kd [3]: 547 nM
